The target of series [1] is T1, CeLIN41 filamin-NHL (Caenorhabditis elegans, UniProt Q9U489 691-1147).
T1 sequence: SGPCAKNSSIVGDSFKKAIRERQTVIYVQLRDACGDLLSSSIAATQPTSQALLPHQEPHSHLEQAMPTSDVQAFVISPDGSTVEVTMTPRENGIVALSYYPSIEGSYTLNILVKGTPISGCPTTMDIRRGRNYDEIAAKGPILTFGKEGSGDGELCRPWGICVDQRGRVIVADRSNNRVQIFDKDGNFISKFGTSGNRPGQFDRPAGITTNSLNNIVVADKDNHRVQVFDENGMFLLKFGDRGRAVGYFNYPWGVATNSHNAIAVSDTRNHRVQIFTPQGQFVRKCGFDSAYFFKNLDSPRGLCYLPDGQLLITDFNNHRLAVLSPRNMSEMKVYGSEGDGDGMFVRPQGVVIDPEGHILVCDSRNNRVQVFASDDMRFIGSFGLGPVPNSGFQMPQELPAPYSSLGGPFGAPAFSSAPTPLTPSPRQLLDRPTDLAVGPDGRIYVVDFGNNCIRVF
Description: EMSA; FP: 20 mM HEPES, 200 mM NaCl, 0.05% Tween20, 100 nM Cy5-RNA, 30 min room temp; EMSA: 1x of 2x buffer (20 mM Hepes pH 8, 100 mM KCl, 200 mM NaCl, 0.2 mM EDTA, 20 mM DTT, 2 mM MgCl2, 2 mM CaCl2, 0.2 mM ZnSO4, 60% glycerol, heparin, E. coli tRNA), 5 uM protein stock (1 ul in 8 ul), ~2 nM RNA, room temp. The conditions noted are these: protein: recombinant, tags: N-terminal Strep tag, TEV site, label: 32P (radioactive) body label.

Series [2] deals with T1, CeLIN41 filamin-NHL. Put plainly: EMSA; restored to wild-type level; FP: 20 mM HEPES, 200 mM NaCl, 0.05% Tween20, 100 nM Cy5-RNA, 30 min room temp; EMSA: 1x of 2x buffer (20 mM Hepes pH 8, 100 mM KCl, 200 mM NaCl, 0.2 mM EDTA, 20 mM DTT, 2 mM MgCl2, 2 mM CaCl2, 0.2 mM ZnSO4, 60% glycerol, heparin, E. coli tRNA), 5 uM protein stock (1 ul in 8 ul), ~2 nM RNA, room temp. The conditions noted are these: protein: recombinant; tags: N-terminal Strep tag, TEV site; label: 32P (radioactive) body label; stems restored by compensatory mutations. (Mobility shift assays separate free from complexed probe on a gel.)

For series [3], the target named is T1, CeLIN41 filamin-NHL. Put plainly: fluorescence polarization; FP: 20 mM HEPES, 200 mM NaCl, 0.05% Tween20, 100 nM Cy5-RNA, 30 min room temp; EMSA: 1x of 2x buffer (20 mM Hepes pH 8, 100 mM KCl, 200 mM NaCl, 0.2 mM EDTA, 20 mM DTT, 2 mM MgCl2, 2 mM CaCl2, 0.2 mM ZnSO4, 60% glycerol, heparin, E. coli tRNA), 5 uM protein stock (1 ul in 8 ul), ~2 nM RNA, room temp. The settings on record: protein: recombinant, tags: N-terminal Strep tag, TEV site, label: 5'-Cy5, hairpin. (Fluorescence polarisation rises when a labelled molecule tumbles more slowly, as on binding a larger partner.)

In series [4] the target is T1, CeLIN41 filamin-NHL. Put plainly: EMSA; restored; FP: 20 mM HEPES, 200 mM NaCl, 0.05% Tween20, 100 nM Cy5-RNA, 30 min room temp; EMSA: 1x of 2x buffer (20 mM Hepes pH 8, 100 mM KCl, 200 mM NaCl, 0.2 mM EDTA, 20 mM DTT, 2 mM MgCl2, 2 mM CaCl2, 0.2 mM ZnSO4, 60% glycerol, heparin, E. coli tRNA), 5 uM protein stock (1 ul in 8 ul), ~2 nM RNA, room temp. The settings on record: protein: recombinant; tags: N-terminal Strep tag, TEV site; label: 32P (radioactive) body label; SL I and III restored.

Substitutions are numbered along the chain they refer to.

B1: mab-10 part 4 (structured_RNA)
RNA: UCGCAUCCAAUGCAUUGCAAGUUGAUUGCUUUUAUAAAUUUUUGGGUCUCGAAGCGAAAAGCCCAUAGGAUUUUCACAAAAAUUUUGCAUUUAAUGCAGUGAAAAUUCAAAAAAUUCAAAGAUUUUUCUGAAUAGAUCAAAUUUUCAAAUUUUCCGGUCAUUCGAAAUGGCCUAAUUUGCUCCAAAAAUUUGAAUAAUCC
Turning to B1, the binding result with CeLIN41 filamin-NHL [1] (tri-loop stem-loops) is “binds”.

B2: mab-10 part 4 mut-res (structured_RNA)
RNA: B1 RNA with C4G, G12C, C88G, G96C, C159G, G169C
For B2, the binding result in the series with CeLIN41 filamin-NHL [2] is “binds”.

B3: mab-10 condensed 3'UTR (structured_RNA)
RNA: UCUAGUUUUCAAAAAACCCCCCAUUUUUCCGGCGGUUUUUCAAAAACCAAUGCCAAGCUCUCAUAUAAUGGGAGUCUAAACACAGUUCGGUUCCAAAACUGAAAAACUUCAAUUUCGCAUCCAAUGCAUUGCAAGUUGAUUGCUUUUCACAAAAAUUUUGCAUUUAAUGCAGUGAAAAUUUUCCGGUCAUUCGAAAUGGCCUAAUUUGCUCCAAAAA
For the molecule B3, the binding result with CeLIN41 filamin-NHL [1] (five tri-loop stem-loops) is listed as “binds”.

B4: mab-10 condensed 3'UTR mut (structured_RNA)
RNA: B3 RNA with G35C, C62G, C118G, C161G, C188G
For B4, in the series with CeLIN41 filamin-NHL [1] (five stems disrupted), the binding result was “no binding”.

B5: mab-10 condensed 3'UTR mut-res (structured_RNA)
RNA: B3 RNA with G35C, C47G, C62G, G70C, C118G, G126C, C161G, G169C, C188G, G198C
Take B5: the binding result with CeLIN41 filamin-NHL [1] (five stems restored) is “binds”.

B6: L1 (lin-29A SL I, WT LRE) (structured_RNA)
RNA: GGAGUCCAACUCC
For orientation: Kd means the concentration at which binding is half-saturated. In the case of B6, in the series with CeLIN41 filamin-NHL [3] (5 bp stem, tri-loop), the Kd turned out to be 1320 nM.

B7: Ctrl (5-nt loop) (structured_RNA)
RNA: GCUGACCAACUCC
For B7, in the series with CeLIN41 filamin-NHL [3] (5 nt loop), the binding result is recorded as “no binding”.

B8: lin-29A 5'UTR (structured_RNA)
RNA: GUUCCGAACCAAUUCGCCUAGCGAACCUUGGAGUCCAACUCCGUUUUUACUCUUUUCUGAAAAGAGCCUACUAAAUAUUGGAACUAUAAUCAAACUAUUCGAUCAAAUCGACACACCUACUAGAUAUCAAAUAUCUAAUACUGGAACCAAGGCUUGGGUAACCUGAAACUGUGCGAAUUUGGAGCAGAAAUAUU
Turning to B8, the binding result in the series with CeLIN41 filamin-NHL [1] (four tri-loop stem-loops) was “binds”.

B9: lin-29A mut2-res (structured_RNA)
RNA: B8 RNA with G33C, C39G, G101C, C109G
Turning to B9, the binding result with CeLIN41 filamin-NHL [4] is “binds”.

B10: mab-10 part 2 (structured_RNA)
RNA: UAAAUUCCCGCCCCCUUCGCUCGGAGUCAUAUAAUUUCCUUCUCUUCCUAUCACUUUUUUGUCUAGUUUUCAAAAAACCCCCCAUUUUUCCGGCGGUUUUUCAAAAACCAAUGCCAAGCUCUCAUAUAAUGGGAGUCUAAACACAGUUCGGUUCCAAAACCAACGCCCACGGCCCCGCCCCCAAUUAGAUAAUUUAAAUA
B10: the binding result with CeLIN41 filamin-NHL [1] (tri-loop stem-loops) is “binds”.

B11: mab-10 part 2 mut-res (structured_RNA)
RNA: B10 RNA with G96C, C108G, C123G, G131C
For B11, in the series with CeLIN41 filamin-NHL [2], the binding result was “binds”.

Values taken from article PMC5908797, “Evolutionary plasticity of the NHL domain underlies distinct solutions to RNA recognition”.
